Patent publication US20240317885A1 (published 2024)
Blank lines part the entries; values can stand above or below the binder they belong to.

Key:
v127 = test: Biacore
v144 = test: Biacore
[1] = molecular target: T1, Tax interacting protein-1 (TIP1), recombinant / purified protein (UniProt O14907 1-124); test: ELISA
T1 chain: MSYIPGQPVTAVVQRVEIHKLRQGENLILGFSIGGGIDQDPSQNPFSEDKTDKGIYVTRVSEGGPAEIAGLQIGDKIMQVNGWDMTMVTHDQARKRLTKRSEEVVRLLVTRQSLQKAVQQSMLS

[2] = molecular target: T1, Tax interacting protein-1 (TIP1), …; test: ELISA
[3] = molecular target: T1, Tax interacting protein-1 (TIP1), …; test: Biacore
[4] = molecular target: T1, Tax interacting protein-1 (TIP1), …; test: Biacore

Kd (v127): 0.13 nM
Kd (v144): 0.241 nM
B1: TIP1 (other)
chain: T1 chain

Kd [1]: 0.124 nM
EC50 [2]: 0.164 nM
Kd [3]: 0.107 nM
Kd [4]: 0.107 nM
B2: human IgG1 v111 (antibody, V domains shown)
VH: QMQLVQSGAEVKKPGESLKISCKGSGYSFTSNWIGWVRQMPGKGLEWMGIIYPGDSDTRYSPSFQGQVTISADKSISTAYLQWSSLKASDTAMYYCARQQGHDAFDIWGQGTTVTVSS
VL: SYELTQPPSVSVSPGQTARITCSGDALPKRYAYWYRQKPGQAPVLVIQKDTERPSGIPERFSGSISGTTVTLTISGVQAEDEADYYCQSTDSSASYAVFGGGTKLTVL
